Key:
[1] = tested on: H3 peptide (aa10-35) K18ac
[2] = tested on: nucleosome arrays containing the rH3 K18 acetyl-lysine analogue
[3] = tested on: nucleosome arrays containing unmodified rH3
[4] = tested on: rH3 K18 acetyl-lysine analogue
[5] = tested on: rH3 K27 dimethyl-lysine analogue
[6] = tested on: rH3 K27 monomethyl-lysine analogue
[7] = tested on: rH3 K27 trimethyl-lysine analogue
[8] = tested on: rH3 K36 dimethyl-lysine analogue
[9] = tested on: rH3 K36 monomethyl-lysine analogue
[10] = tested on: rH3 K36 trimethyl-lysine analogue
[11] = tested on: rH3 K4 dimethyl-lysine analogue
[12] = tested on: rH3 K4 monomethyl-lysine analogue
[13] = tested on: rH3 K4 trimethyl-lysine analogue
[14] = tested on: rH3 K9 dimethyl-lysine analogue
[15] = tested on: rH3 K9 monomethyl-lysine analogue
[16] = tested on: rH3 K9 trimethyl-lysine analogue
[17] = tested on: recombinant histone H3, wild type
[18] = tested on: reconstituted native nucleosome arrays (modified native histones purified from HeLa cells)

recombinant MMP-9 (aa115-730), sequence (chain, as listed by the source): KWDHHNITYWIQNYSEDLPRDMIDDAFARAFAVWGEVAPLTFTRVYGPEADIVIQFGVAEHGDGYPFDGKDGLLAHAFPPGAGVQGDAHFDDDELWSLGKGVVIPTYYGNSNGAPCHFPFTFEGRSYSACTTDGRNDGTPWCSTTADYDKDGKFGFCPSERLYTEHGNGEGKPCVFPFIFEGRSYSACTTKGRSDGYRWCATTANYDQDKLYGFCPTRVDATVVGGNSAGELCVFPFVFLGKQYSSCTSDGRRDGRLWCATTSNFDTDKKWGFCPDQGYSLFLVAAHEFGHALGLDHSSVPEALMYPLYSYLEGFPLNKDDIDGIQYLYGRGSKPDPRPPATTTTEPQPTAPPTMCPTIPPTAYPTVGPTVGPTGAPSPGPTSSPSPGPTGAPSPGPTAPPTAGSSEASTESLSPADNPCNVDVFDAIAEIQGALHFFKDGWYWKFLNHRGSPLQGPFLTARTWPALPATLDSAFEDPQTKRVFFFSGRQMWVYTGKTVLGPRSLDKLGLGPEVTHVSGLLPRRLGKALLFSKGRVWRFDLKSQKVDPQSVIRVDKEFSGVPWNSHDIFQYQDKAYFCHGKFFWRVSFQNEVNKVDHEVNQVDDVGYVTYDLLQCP

| Substance | cleaved H3 (peptide hydrolysis measured with fluorescamine; kinetic analysis), against unmodified H3 or H3K27me1 peptides [1] | H3NT cleavage (in vitro H3NT cleavage assay) [2] | rMMP-9 protease activity (in vitro H3NT cleavage assay) [3] | H3NT proteolysis (in vitro H3NT cleavage assay) [4] | MMP-9 activity (in vitro H3NT cleavage assay) [5] | MMP-9 activity (in vitro H3NT cleavage assay) [6] | MMP-9 activity (in vitro H3NT cleavage assay) [7] | MMP-9 activity (in vitro H3NT cleavage assay) [8] | MMP-9 activity (in vitro H3NT cleavage assay) [9] | MMP-9 activity (in vitro H3NT cleavage assay) [10] | MMP-9 activity (in vitro H3NT cleavage assay) [11] | MMP-9 activity (in vitro H3NT cleavage assay) [12] | MMP-9 activity (in vitro H3NT cleavage assay) [13] | MMP-9 activity (in vitro H3NT cleavage assay) [14] | MMP-9 activity (in vitro H3NT cleavage assay) [15] | MMP-9 activity (in vitro H3NT cleavage assay) [16] | H3NT protease activity (in vitro H3NT cleavage assay, Western blot with the H3CT antibody) [17] | rMMP-9 protease activity (in vitro H3NT cleavage assay) [18] |
| --- | --- | --- | --- | --- | --- | --- | --- | --- | --- | --- | --- | --- | --- | --- | --- | --- | --- | --- |
| recombinant MMP-9 (aa115-730) | 3-fold increase of cleaved H3 compared to unmodified H3 or H3K27me1 peptides | the specific acetylation of H3K18 was both necessary and sufficient for H3NT cleavage by rMMP-9 in a nucleosome array context | completely resistant to rMMP-9 protease activity | the specific acetylation of K18 robustly increased H3NT proteolysis by rMMP-9 | nearly identical to rH3 control in all cases | nearly identical to rH3 control in all cases | nearly identical to rH3 control in all cases | nearly identical to rH3 control in all cases | nearly identical to rH3 control in all cases | nearly identical to rH3 control in all cases | nearly identical to rH3 control in all cases | nearly identical to rH3 control in all cases | nearly identical to rH3 control in all cases | nearly identical to rH3 control in all cases | nearly identical to rH3 control in all cases | nearly identical to rH3 control in all cases | only rMMP-9 possessed H3NT protease activity | rMMP-9 displayed robust activity for modified native nucleosome arrays |
| recombinant USP14 |  |  |  |  |  |  |  |  |  |  |  |  |  |  |  |  | only rMMP-9 possessed H3NT protease activity |  |
